Reference: paper PMC5758886

Experiments:
[1] = molecular target: AcrIIA1 (native wild type) (Listeria monocytogenes prophages); assay: crystal structure
[2] = molecular target: AcrIIA1 (native wild type) (Listeria monocytogenes prophages); assay: SEC
[3] = molecular target: AcrIIA1 selenomethionyl L52M mutant (Listeria monocytogenes prophages); assay: crystal structure

Substance: AcrIIA1 (native wild type) (natural protein)
- stoichiometry N [1]: 2
- stoichiometry N [2]: 2

Substance: AcrIIA1 selenomethionyl L52M mutant (natural protein)
- stoichiometry N [3]: 2
